Reference: patent US20200123252A1 (LAMKAP BIO BETA, published 2020)

T1: human CEACAM5 on MKN-45 cells (human, UniProt P06731 35-685)
T1 construct: Endogenous CEACAM5 on MKN-45 gastric adenocarcinoma cells, which also carry CD47 (and CEACAM6); also called CD66e; MKN45 CEA+ cancer cells
T1 sequence: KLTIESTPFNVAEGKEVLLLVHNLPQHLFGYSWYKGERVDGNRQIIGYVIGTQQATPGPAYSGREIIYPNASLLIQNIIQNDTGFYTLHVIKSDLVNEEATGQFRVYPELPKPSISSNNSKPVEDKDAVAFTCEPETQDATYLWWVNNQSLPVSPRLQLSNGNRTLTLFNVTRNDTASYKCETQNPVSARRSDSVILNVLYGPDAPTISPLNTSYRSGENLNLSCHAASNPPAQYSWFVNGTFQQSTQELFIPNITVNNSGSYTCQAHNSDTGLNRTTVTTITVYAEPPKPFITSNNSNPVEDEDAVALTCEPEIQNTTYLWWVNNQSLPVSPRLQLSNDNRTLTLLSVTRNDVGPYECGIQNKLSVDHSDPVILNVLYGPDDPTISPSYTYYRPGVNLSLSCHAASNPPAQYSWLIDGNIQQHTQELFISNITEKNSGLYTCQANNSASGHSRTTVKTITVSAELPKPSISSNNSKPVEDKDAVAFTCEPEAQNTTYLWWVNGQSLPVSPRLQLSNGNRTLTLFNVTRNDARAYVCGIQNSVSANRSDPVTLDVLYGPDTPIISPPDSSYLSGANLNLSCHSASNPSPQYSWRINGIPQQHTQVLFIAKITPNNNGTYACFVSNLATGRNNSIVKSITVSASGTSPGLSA

T2: human CEACAM6 (human, UniProt P40199 35-320)
T2 construct: also called CD66c; biotinylated recombinant human CEACAM6
T2 sequence (looked up): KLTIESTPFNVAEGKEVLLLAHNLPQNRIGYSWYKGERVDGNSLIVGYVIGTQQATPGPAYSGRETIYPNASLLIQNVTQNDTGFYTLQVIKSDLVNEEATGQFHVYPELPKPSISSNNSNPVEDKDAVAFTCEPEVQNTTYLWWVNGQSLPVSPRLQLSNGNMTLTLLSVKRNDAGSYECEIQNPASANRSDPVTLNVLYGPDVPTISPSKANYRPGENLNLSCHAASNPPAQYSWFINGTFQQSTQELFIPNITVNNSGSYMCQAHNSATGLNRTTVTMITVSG

T3: shed CEA (soluble CEA) (human, UniProt P06731 35-685, limits assumed)
T3 sequence (looked up): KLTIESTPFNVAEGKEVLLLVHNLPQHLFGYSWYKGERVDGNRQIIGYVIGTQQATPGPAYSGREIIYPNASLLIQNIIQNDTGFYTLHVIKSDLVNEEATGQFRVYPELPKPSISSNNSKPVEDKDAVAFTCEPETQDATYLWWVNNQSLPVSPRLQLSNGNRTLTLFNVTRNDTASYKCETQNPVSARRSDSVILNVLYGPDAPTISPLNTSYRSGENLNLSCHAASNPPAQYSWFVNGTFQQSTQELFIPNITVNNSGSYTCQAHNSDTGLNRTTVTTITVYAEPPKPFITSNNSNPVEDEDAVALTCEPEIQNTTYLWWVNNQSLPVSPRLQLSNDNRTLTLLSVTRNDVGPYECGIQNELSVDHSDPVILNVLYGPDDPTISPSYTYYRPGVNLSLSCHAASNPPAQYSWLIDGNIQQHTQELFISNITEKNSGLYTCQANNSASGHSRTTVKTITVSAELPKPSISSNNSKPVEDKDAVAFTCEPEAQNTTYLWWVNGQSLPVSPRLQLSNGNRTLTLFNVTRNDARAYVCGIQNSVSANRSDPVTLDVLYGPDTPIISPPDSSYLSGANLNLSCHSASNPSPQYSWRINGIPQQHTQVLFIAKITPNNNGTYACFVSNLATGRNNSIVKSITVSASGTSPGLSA


Tests used:
[1] = molecular target: T1, human CEACAM5 on MKN-45 cells; test: FACS binding to MKN-45 cells, which express CD47, CEACAM5 and CEACAM6; K2AC39 is cross-reactive to CEACAM6
[2] = molecular target: T4, human CD47 on MKN45 cells (human, UniProt Q08722 19-323); test: inhibition of SIRPα-mouseFc binding to CD47 on MKN45 cells, imaging (CX5)
T4 construct: whole, on cells; also called IAP
Source text: The detection of bound SIRPα cell-based assay monitoring the interaction of soluble SIRPα with human CD47 expressed at the surface of MKN45 is used for the detection of the blocking activity. Dose-response experiments with bispecific antibodies according to the invention allow determination of an IC50 value.
MKN45 cancer cells, expressing both CD47 and CEACAM5, are stained with CFSE violet to allow the imaging system (CX5) to detect the cells. Briefly, 3,000 stained MKN45 cells per well are seeded in a 384 optical well plate (Costar) and incubated for 50 minutes with increased concentrations of bispecific antibodies of the invention (1.9 pM to 333 nM, in quadruplicates). Then, a fixe concentration of SIRPα-mouseFc premixed with anti-mouse IgG-Fc AF647 coupled antibody (Jackson Immunoresearch diluted 1:2000) is added at 50 ng/mL final. After an incubation of 3H30 plates are acquired with the imaging system (CX5, Thermofisher) and fluorescence signals emitted by the detected bound SIRPα is recorded by the software dedicated to the imaging system. Fluorescence signals are plotted according to the dose range tested and IC50 are calculated by the software (Prism, Graphpad).

[3] = molecular target: T1, human CEACAM5 on MKN-45 cells; test: flow cytometry on MKN45 CEA+ cells (carry CEACAM5 and CD47)
human CEACAM6 = molecular target: T2, human CEACAM6; test: ELISA on biotinylated recombinant human CEACAM6 captured on streptavidin, bivalent mAb
Procedure: Biotinylated recombinant human CEACAM5 or CEACAM6 proteins are captured at 0.5 μg/mL in a streptavidin coated 96-well microplate. The plate is washed and monoclonal anti-CEA bivalent antibodies of the present invention are added as a broad concentration-range (e.g. from […] to 1 μg/mL) and incubated during 1 hr. The plate is washed and bound antibodies are detected with an anti-human IgG(Fc)-HRP (Jackson ImmunoResearch). […] The fluorescence signal is measured on a Synergy HT plate reader (Biotek).

shed CEA (soluble CEA) = molecular target: T3, shed CEA (soluble CEA); test: cell-based or functional assay
[4] = molecular target: T1, human CEACAM5 on MKN-45 cells; test: binding to MKN-45 cells (MFI), in the presence of 200 ng/mL shed CEA
[5] = molecular target: T1, human CEACAM5 on MKN-45 cells; test: binding to MKN-45 cells (MFI), without shed CEA
[6] = molecular target: T1, human CEACAM5 on MKN-45 cells; test: flow cytometry on MKN45 CEA+ cells (carry CEACAM5 and CD47); MKN45 CEA+ cancer cells

Row | Binder | IC50 [2] [nM] | EC50 [3] [nM] | further results
1 | K2AC39 CD47×CEA bispecific antibody (bispecific antibody, human IgG1, kappa, lambda, κλ body with common heavy chain; CEACAM5/CEACAM6 arm light chain 1B2 (AC39)) heavy: not shown light 1: QSVLTQPPSVSAAPGQKVTISCSGSSSEITASGVSWYQQLPGTAPKLLIYDNNKRPSGIPDRFSGSKSGTSATLGITGLQTGDEADYYCGTWDFPPSRFVFGGGTKLTVLGQPKAAPSVTLFPPSSEELQANKATLVCLISDFYPGAVTVAWKADSSPVKAGVETTTPSKQSNNKYAASSYLSLTPEQWKSHRSYSCQVTHEGSTVEKTVAPTECS light 2: not shown | – | – | EC50 (read off the curve) [1]: ~3 mg/L
2 | K2AC25 CEA×CD47 bispecific antibody (bispecific antibody, human IgG1, kappa, lambda, κλ body, human IgG1, common heavy chain; CEACAM5 arm light chain 2F4 (AC25)) heavy: not shown light 1: QSVLTQPPSVSAAPGQKVTISCSGSSSNIGITPVSWYQQLPGTAPKLLIYSNNFRPSGIPDRFSGSKSGTSATLGITGLQTGDEADYYCGTWDRTGHEIRPVFGGGTKLTVLGQPKAAPSVTLFPPSSEELQANKATLVCLISDFYPGAVTVAWKADSSPVKAGVETTTPSKQSNNKYAASSYLSLTPEQWKSHRSYSCQVTHEGSTVEKTVAPTECS light 2: not shown | 0.22 | 13 | –
3 | K2AC27 CEA×CD47 bispecific antibody (bispecific antibody, human IgG1, kappa, lambda, κλ body, human IgG1, common heavy chain; CEACAM5 arm light chain 2C11 (AC27)) heavy: not shown light 1: QSVLTQPPSVSGAPGQRVTISCTGSSSNIGYADKVHWYQQLPGTAPKLLIYNNSDRPSGVPDRFSGSKSGTSASLAITGLQAEDEADYYCQSYDGYNMLTAVFGGGTKLTVLGQPKAAPSVTLFPPSSEELQANKATLVCLISDFYPGAVTVAWKADSSPVKAGVETTTPSKQSNNKYAASSYLSLTPEQWKSHRSYSCQVTHEGSTVEKTVAPTECS light 2: not shown | 0.86 | 12.5 | –
4 | AC22 anti-CEA bivalent monoclonal antibody (antibody, human IgG1, lambda, V domains shown, also called 1G6; anti-CEA bivalent mAb of K2AC22) VH: not shown VL: QSVLTQPPSVSAAPGQKVTISCSGSSSNIANGIVSWYQQLPGTAPKLLIYFDNLRPSGIPDRFSGSKSGTSATLGITGLQTGDEADYYCGTWDFSYGIVFGGGTKLTVLG | – | – | binding result (human CEACAM6): no binding
5 | K2AC10 CEA×CD47 bispecific antibody (bispecific antibody, human IgG1, kappa, lambda, κλ body, human IgG1, common heavy chain; CEACAM5 arm light chain 1D5 (AC10)) heavy: not shown light 1: QSVLTQPPSVSGAPGQRVTISCTGSSSNIYANSNVHWYQQLPGTAPKLLIYSGSNRPSGVPDRFSGSKSGTSASLAITGLQAEDEADYYCQSYDPAHNLLTAVFGGGTKLTVLGQPKAAPSVTLFPPSSEELQANKATLVCLISDFYPGAVTVAWKADSSPVKAGVETTTPSKQSNNKYAASSYLSLTPEQWKSHRSYSCQVTHEGSTVEKTVAPTECS light 2: not shown | 0.22 | 1.15 | –
6 | K2AC26 CEA×CD47 bispecific antibody (bispecific antibody, human IgG1, kappa, lambda, κλ body, human IgG1, common heavy chain; CEACAM5 arm light chain 2F7 (AC26)) heavy: not shown light 1: QSALTQPASVSGSPGQSITISCTGTSSDVKYANAVSWYQQHPGKAPKLMIYSNSIRPSGVSNRFSGSKSGNTASLTISGLQAEDEADYYCSSYDPRGNLLIRVFGGGTKLTVLGQPKAAPSVTLFPPSSEELQANKATLVCLISDFYPGAVTVAWKADSSPVKAGVETTTPSKQSNNKYAASSYLSLTPEQWKSHRSYSCQVTHEGSTVEKTVAPTECS light 2: not shown | 0.32 | 12.7 | –
7 | K2AC28 CEA×CD47 bispecific antibody (bispecific antibody, human IgG1, kappa, lambda, κλ body, human IgG1, common heavy chain; CEACAM5 arm light chain C11 (AC28)) heavy: not shown light 1: NFMLTQPHSVSESPGKTVTISCTRSSGSINDITVHWYQQRPGSSPTTVIYGYNARPSGVPDRFSGSIDSSSNSASLTISGLKTEDEADYYCQSWDGHGSAYVFGGGTKLTVLGQPKAAPSVTLFPPSSEELQANKATLVCLISDFYPGAVTVAWKADSSPVKAGVETTTPSKQSNNKYAASSYLSLTPEQWKSHRSYSCQVTHEGSTVEKTVAPTECS light 2: not shown | 0.95 | 52.5 | –

Further binders by falling IC50 [2], results first:

Row | IC50 [2] [nM] | EC50 [3] [nM] | Binder | further results
8 | 7 | 132 | K2AC18 CEA×CD47 bispecific antibody (bispecific antibody, human IgG1, kappa, lambda, κλ body, human IgG1, common heavy chain; CEACAM5 arm light chain 1A2 (AC18)) heavy: not shown light 1: SYVLTQPPSVSVAPGKTARITCGGNGIGDASVHWYQQKPGQAPVLVIYSTTTRPSGIPERFSGSNSGNTATLTISRVEAGDEADYYCQVWDGFGPRHRAVFGGGTKLTVLGQPKAAPSVTLFPPSSEELQANKATLVCLISDFYPGAVTVAWKADSSPVKAGVETTTPSKQSNNKYAASSYLSLTPEQWKSHRSYSCQVTHEGSTVEKTVAPTECS light 2: not shown | –
9 | 4 | 190 | K2AC13 CEA×CD47 bispecific antibody (bispecific antibody, human IgG1, kappa, lambda, κλ body, human IgG1, common heavy chain; CEACAM5 arm light chain 2B8 (AC13)) heavy: not shown light 1: QSALTQPASVSGSPGQSITISCTGTSSNVRYAAGVSWYQQHPGKAPKLMIYEVSNRPSGVSNRFSGSKSGNTASLTISGLQAEDEADYYCSSWDFEHGPAAKVFGGGTKLTVLGQPKAAPSVTLFPPSSEELQANKATLVCLISDFYPGAVTVAWKADSSPVKAGVETTTPSKQSNNKYAASSYLSLTPEQWKSHRSYSCQVTHEGSTVEKTVAPTECS light 2: not shown | –
10 | 0.72 | 14.5 | K2AC29 CEA×CD47 bispecific antibody (bispecific antibody, human IgG1, kappa, lambda, κλ body, human IgG1, common heavy chain; CEACAM5 arm light chain 2B5 (AC29)) heavy: not shown light 1: QSALTQPASVSGSPGQSITISCTGTSSDVEFTNGVSWYQQHPGKAPKLMIYGFSSRPSGVSNRFSGSKSGNTASLTISGLQAEDEADYYCSSYDPPWHLLARVFGGGTKLTVLGQPKAAPSVTLFPPSSEELQANKATLVCLISDFYPGAVTVAWKADSSPVKAGVETTTPSKQSNNKYAASSYLSLTPEQWKSHRSYSCQVTHEGSTVEKTVAPTECS light 2: not shown | –
11 | 0.4 | – | K2AC5 CEA×CD47 bispecific antibody (bispecific antibody, human IgG1, kappa, lambda, κλ body, human IgG1, common heavy chain; CEACAM5 arm light chain 1D9 (AC5) with lambda constant domain, CD47 arm kappa light chain KA3 (K2); also called CD47×CEA bispecific antibody K2AC5) heavy: not shown light 1: QSVLTQPPSVSAAPGQKVTISCSGSSSNIGYGLVSWYQQLPGTAPKLLIYAGNLRPSGIPDRFSGSKSGTSATLGITGLQTGDEADYYCGTWDFNYGVVFGGGTKLTVLGQPKAAPSVTLFPPSSEELQANKATLVCLISDFYPGAVTVAWKADSSPVKAGVETTTPSKQSNNKYAASSYLSLTPEQWKSHRSYSCQVTHEGSTVEKTVAPTECS light 2: not shown | shift of EC50 of the phagocytosis index curve of MKN-45 cells by 200 ng/mL shed CEA (shed CEA (soluble CEA)): < 4 fold; EC50 (read off the curve) [4]: ~0.3 mg/L; EC50 (read off the curve) [5]: ~0.3 mg/L; EC50 [6]: 11.3 nM
